Test results as given in paper PMC3596254.

Biological target: GFP-tagged T759A mutant DIAPH1 (murine pEGFP-mDia T751A) (murine) (UniProt O08808)
Experiment: co-IP

Chain of UniProt O08808 (O08808 whole entry T751A): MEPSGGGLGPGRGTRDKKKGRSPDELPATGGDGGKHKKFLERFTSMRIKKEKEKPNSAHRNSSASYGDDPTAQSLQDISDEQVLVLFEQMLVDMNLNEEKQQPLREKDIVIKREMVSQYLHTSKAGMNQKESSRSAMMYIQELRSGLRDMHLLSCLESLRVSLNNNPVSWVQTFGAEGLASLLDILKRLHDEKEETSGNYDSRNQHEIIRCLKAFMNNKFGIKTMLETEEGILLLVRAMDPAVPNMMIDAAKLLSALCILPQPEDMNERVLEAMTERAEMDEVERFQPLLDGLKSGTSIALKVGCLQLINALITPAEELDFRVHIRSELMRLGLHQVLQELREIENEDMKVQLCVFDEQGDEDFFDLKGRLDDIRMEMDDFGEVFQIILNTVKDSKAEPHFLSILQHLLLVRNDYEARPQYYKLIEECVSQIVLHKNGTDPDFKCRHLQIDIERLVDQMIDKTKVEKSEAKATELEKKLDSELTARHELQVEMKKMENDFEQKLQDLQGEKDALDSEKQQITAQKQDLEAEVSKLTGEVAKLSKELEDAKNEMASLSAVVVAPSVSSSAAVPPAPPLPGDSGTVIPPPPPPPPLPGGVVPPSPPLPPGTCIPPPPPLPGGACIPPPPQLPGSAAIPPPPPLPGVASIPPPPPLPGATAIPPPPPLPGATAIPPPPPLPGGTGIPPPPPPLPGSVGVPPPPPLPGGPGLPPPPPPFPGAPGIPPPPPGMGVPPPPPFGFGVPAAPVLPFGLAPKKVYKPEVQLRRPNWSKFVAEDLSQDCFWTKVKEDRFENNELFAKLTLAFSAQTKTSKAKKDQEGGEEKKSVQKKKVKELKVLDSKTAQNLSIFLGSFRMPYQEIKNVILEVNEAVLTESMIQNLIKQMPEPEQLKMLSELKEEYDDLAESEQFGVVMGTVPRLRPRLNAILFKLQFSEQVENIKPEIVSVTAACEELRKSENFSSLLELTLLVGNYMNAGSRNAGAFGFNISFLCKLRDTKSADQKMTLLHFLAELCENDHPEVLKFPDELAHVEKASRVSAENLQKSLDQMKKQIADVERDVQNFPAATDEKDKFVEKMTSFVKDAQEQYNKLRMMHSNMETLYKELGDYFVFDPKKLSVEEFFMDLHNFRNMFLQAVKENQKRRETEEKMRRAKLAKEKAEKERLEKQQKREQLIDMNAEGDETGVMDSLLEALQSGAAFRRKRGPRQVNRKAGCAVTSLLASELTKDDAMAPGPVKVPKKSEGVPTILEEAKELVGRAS

Substance | percent decrease of the co-precipitate against wild type
Actin, β (from UniProt P60709 1-375) (natural protein) | 86%
Kinesin heavy chain (from UniProt P33176 1-963) (natural protein) | 65%
